Measurements reported in patent US20130052162A1, “BOOSTING IMMUNE DEFENSE BY UPREGULATING CCAAT/ENHANCER BINDING PROTEIN EPSILON” (CEDARS-SINAI MEDICAL CENTER, priority 2010, published 2013).
Entries after “also recorded” stand apart in the source; their conditions may differ.

B1: IFN-γ: recombinant murine IFN-γ (Shenandoah Biotechnology) (protein, UniProt P01580 23-155, looked up)
Interferon gamma: HGTVIESLESLNNYFNSSGIDVEEKSLFLDIWRNWQKDGDMKILQSQIISFYLRLFEVLKDNQAISNNISVIESHLITTFFSNSKAKKDAFMSIAKFEVNNPQVQRQAFNELIRVVHQLLPESSLRKRKRSRC

Columns and labels:
[1] = system: S. aureus (strains Pig1 and LAC); assay: Effect of zinc on growth and viability of S. aureus; assay type: cell-based, Staphylococcus aureus; settings: 100 μM Zn2SO4, RPMI 1640 with 10% FBS, 24 h
Description: To assess whether zinc, at the concentrations used in the inventors' study, adversely affect the growth and viability of S. aureus (strains Pig1 and LAC), bacteria (˜5×10^5 CFU) were incubated with or without 100 μM zinc (Zn2 SO4) in RPMI 1640 with 10% FBS. The assay was performed in triplicate in 96-well plates for 24 h at 37° C. at which time ten-fold serial dilutions were plated on THA for enumeration of CFU.

[2] = system: S. aureus; assay: S. aureus survival assay in BMDM treated with IFN-γ; assay type: cell-based, mouse; settings: C/EBPε−/− BMDM, IFN-γ 48 h before infection, 24 h
Description: Macrophages were infected with S. aureus at the specified MOI. […] After 30 min, macrophages were washed three times with pre-warmed media to remove extracellular bacteria. Gentamicin (Invitrogen, Carlsbad, Calif., USA) was then added to each well at a final concentration of 400 μg/mL for 1.5 h. At this time, the concentration of gentamicin in the media was reduced to 100 μg/mL for the remainder of the assay. At 24 h post infection, cells were washed three times with PBS, then 100 μl of 0.02% Triton X-100 in water was added to each well and pipetted vigorously 10× to promote macrophage lysis and release intracellular bacteria. Ten-fold serial dilutions of each cell lysate were immediately plated onto THA, and CFU were enumerated following overnight incubation at 37° C. Data are representative of at least two independent experiments performed in triplicate.
BMDM harvested from WT and C/EBPε^−/− mice were seeded at the required density of 5×10^4 cells per well (100 μl) in 96-well tissue culture plates. Macrophages were then activated with IFN-γ (200 U/mL) for 48 h prior to infection. Activated and control non-activated macrophages were infected with S. aureus at the specified MOI. The macrophage survival assay was then performed as described for U937 macrophages.

[3] = system: S. aureus; assay: Murine skin (s.c.) S. aureus infection with IFN-γ treatment; assay type: in vivo, mouse; settings: C/EBPε−/− mice, 5,000 U i.p. daily
Description: S. aureus was pelleted, washed twice and resuspended in PBS (Mediatech, Manassas, Va., USA) mixed 1:1 with sterile Cytodex beads (GE Healthcare, Pasadena, Calif., USA) at the specified inoculum, following an established protocol for generating localized S. aureus and S. pyogenes subcutaneous (s.c.) infection^41,42. One hundred microliters of two separate inocula, as specified, were administered by s.c. injection into the respective two flanks of each mouse. Injections were performed with careful visualization of the needle to assure that they were not intramuscular. Serial dilutions were prepared and plated to confirm the actual inocula used.
Baseline weights of mice were recorded prior to infection and daily thereafter until sacrifice. Lesions were measured with a caliper, daily throughout infection. Lesions were defined by darkened areas of dermonecrosis. The inventors' method to measure lesion size has been previously reported^43. Briefly, skin lesions were quantified by multiplying the length and width of the lesion. Irregularly-shaped lesions were broken down into smaller symmetrical pieces, and each piece was measured by the same method.
Following euthanization of mice on the specified day, infected skin lesion tissue was aseptically excised, and thoroughly homogenized and mixed in 1 mL of PBS as previously shown^43. Ten-fold serial dilutions of the homogenates were plated on THA for CFU determination. The spleen and both kidneys were aseptically removed from each animal and processed in the same way. When required, the appropriate homogenized suspensions (skin lesions) were centrifuged at 15,000 g for 10 min and supernatants stored at −80° C. for subsequent analysis by ELISA.
Mice were infected with S. aureus by s.c. injection as already described. One hundred microliters of two separate specified inocula were injected into the respective two flanks of WT and C/EBPε^−/− mice.
C/EBPε^−/− mice were treated with recombinant murine IFN-γ (Shenandoah Biotechnology, Warwick, Pa., USA) 48 h prior to infection. IFN-γ was administered i.p. (0.5 mL in PBS) at a dose of 5,000 U. Control WT and C/EBPε^−/− mice received equal amounts of PBS. The respective mice continued to receive IFN-γ or PBS every 24 h until they were euthanized.
Mouse weight and lesion size were recorded daily as already described. At day 4 p.i., mice were euthanized, and the CFU from skin lesions, spleen, and kidneys were determined.

| Molecule | effect on viability and growth of S. aureus [1] | effect on viability and growth of S. aureus ([1]; listed as Zinc) | S. aureus CFU recovered from / killing by macrophages [2] | CFU in skin lesions, spleen and kidneys vs PBS [3] | area of dermonecrosis [3] | changes in body weight vs PBS-treated WT control [3] | overall lesion size / area vs PBS [3] |
| --- | --- | --- | --- | --- | --- | --- | --- |
| O=S(=O)([O-])[O-].[Zn+2] [zinc] | no effect; also recorded: does not have direct anti-staphylococcal activity | no effect | – | – | – | – | – |
| B1 | – | – | reduced the number of S. aureus CFU; also recorded: improved killing of S. aureus | lower numbers of bacteria in the skin lesions; also recorded: significantly lower CFU | dramatically ameliorated | similar | no effect on the overall lesion area; also recorded: no effect on overall lesion size |
